Earlier results as cited in publication PMC4664823.

Columns and labels:
[1] = target: Asp14 (UniProt position 14, GAILADVIGTT); conditions: competition between substrate and protons; various preparations in earlier work
[2] = target: Glu14 (UniProt position 14, GAILAEVIGTT); conditions: competition between substrate and protons; various preparations in earlier work

E14D-EmrE (Escherichia coli; E14D)
pKa [1]: ≈5.0–6.7 and ≈5.4

EmrE (small multidrug resistance transporter), wild type (Escherichia coli)
pKa [2]: 6.8 to 8.5 and ≈7.3
